According to paper PMC10060375, “Self assembling nanoparticle enzyme clusters provide access to substrate channeling in multienzymatic cascades” (Nature Communications, 2023):

How the values were obtained:
[1] = substrate: CC(=O)C(=O)O; test: initial rates, plate reader, Michaelis-Menten fit; assay type: biochemical, Escherichia coli; conditions: free enzyme, 30 °C, cosubstrate saturating, varied substrate inferred from pathway
From the text: initial rates, plate reader, Michaelis-Menten fit on Lactate dehydrogenase (LDH)

purified protein = substrate: O=C[C@H](O)COP(=O)(O)O; test: purified protein; conditions: free enzyme, 30 °C, cosubstrates saturating, varied substrate inferred from pathway
[2] = substrate: O=C(CO)COP(=O)(O)O; test: initial rates, plate reader, Michaelis-Menten fit; assay type: biochemical, Escherichia coli; conditions: free enzyme, 30 °C, forward direction inferred (only PGI and PGK stated as reverse), substrate inferred from pathway
From the text: initial rates, plate reader, Michaelis-Menten fit on Triose phosphate isomerase (TPI)

[3] = substrate: O=C(O)[C@@H](CO)OP(=O)(O)O; test: initial rates, plate reader, Michaelis-Menten fit; assay type: biochemical, Escherichia coli; conditions: free enzyme, 30 °C, substrate inferred from pathway
From the text: initial rates, plate reader, Michaelis-Menten fit on Enolase (Eno)

[4] = substrate: O=C(O)[C@H](O)COP(=O)(O)O; test: initial rates, plate reader, Michaelis-Menten fit; assay type: biochemical, Escherichia coli; conditions: free enzyme, 30 °C, forward direction
From the text: initial rates, plate reader, Michaelis-Menten fit on Phosphoglycerate mutase (PGM)

B1: Lactate dehydrogenase (LDH) (Escherichia coli K-12) (protein)
chain: MKLAVYSTKQYDKKYLQQVNESFGFELEFFDFLLTEKTAKTANGCEAVCIFVNDDGSRPVLEELKKHGVKYIALRCAGFNNVDLDAAKELGLKVVRVPAYDPEAVAEHAIGMMMTLNRRIHRAYQRTRDANFSLEGLTGFTMYGKTAGVIGTGKIGVAMLRILKGFGMRLLAFDPYPSAAALELGVEYVDLPTLFSESDVISLHCPLTPENYHLLNEAAFEQMKNGVMIVNTSRGALIDSQAAIEALKNQKIGSLGMDVYENERDLFFEDKSNDVIQDDVFRRLSACHNVLFTGHQAFLTAEALTSISQTTLQNLSNLEKGETCPNELV
notes: full length, terminal His6 kept; E. coli BL21(DE3); EC 1.1.1.28
- Km [1]: 31.47 ± 6.901 mM
- Vmax [1]: 14.4 µM/min
- kcat [1]: 95.5 ± 10.4 s⁻¹
- kcat/Km [1]: 3040 ± 740 M⁻¹ s⁻¹

B2: Glyceraldehyde-3-phosphate dehydrogenase (GPD) (Escherichia coli K-12) (protein)
chain: TIKVGINGFGRIGRIVFRAAQKRSDIEIVAINDLLDADYMAYMLKYDSTHGRFDGTVEVKDGHLIVNGKKIRVTAERDPANLKWDEVGVDVVAEATGLFLTDETARKHITAGAKKVVMTGPSKDNTPMFVKGANFDKYAGQDIVSNASCTTNCLAPLAKVINDNFGIIEGLMTTVHATTATQKTVDGPSHKDWRGGRGASQNIIPSSTGAAKAVGKVLPELNGKLTGMAFRVPTPNVSVVDLTVRLEKAATYEQIKAAVKAAAEGEMKGVLGYTEDDVVSTDFNGEVCTSVFDAKAGIALNDNFVKLVSWYDNETGYSNKVLDLIAHISK
- Km (purified protein): 3.494 ± 1.039 mM
- Vmax (purified protein): 0.6 µM/min
- kcat (purified protein): 3.2 s⁻¹
- kcat/Km (purified protein): 920 M⁻¹ s⁻¹

B3: Triose phosphate isomerase (TPI) (Escherichia coli K-12) (protein)
chain: MRHPLVMGNWKLNGSRHMVHELVSNLRKELAGVAGCAVAIAPPEMYIDMAKREAEGSHIMLGAQNVDLNLSGAFTGETSAAMLKDIGAQYIIIGHSERRTYHKESDELIAKKFAVLKEQGLTPVLCIGETEAENEAGKTEEVCARQIDAVLKTQGAAAFEGAVIAYEPVWAIGTGKSATPAQAQAVHKFIRDHIAKVDANIAEQVIIQYGGSVNASNAAELFAQPDIDGALVGGASLKADAFAVIVKAAEAAKQA
notes: full length, terminal His6 kept; E. coli BL21(DE3)
- Km [2]: 1.717 ± 0.236 mM
- Vmax [2]: 34.9 µM/min
- kcat [2]: 194 ± 12 s⁻¹
- kcat/Km [2]: 113000 ± 17000 M⁻¹ s⁻¹

B4: Enolase (Eno) (Escherichia coli K-12) (protein)
chain: SKIVKIIGREIIDSRGNPTVEAEVHLEGGFVGMAAAPSGASTGSREALELRDGDKSRFLGKGVTKAVAAVNGPIAQALIGKDAKDQAGIDKIMIDLDGTENKSKFGANAILAVSLANAKAAAAAKGMPLYEHIAELNGTPGKYSMPVPMMNIINGGEHADNNVDIQEFMIQPVGAKTVKEAIRMGSEVFHHLAKVLKAKGMNTAVGDEGGYAPNLGSNAEALAVIAEAVKAAGYELGKDITLAMDCAASEFYKDGKYVLAGEGNKAFTSEEFTHFLEELTKQYPIVSIEDGLDESDWDGFAYQTKVLGDKIQLVGDDLFVTNTKILKEGIEKGIANSILIKFNQIGSLTETLAAIKMAKDAGYTAVISHRSGETEDATIADLAVGTAAGQIKTGSMSRSDRVAKYNQLIRIEEALGEKAPYNGRKEIKGQA
notes: as for B3
- Km [3]: 2.04 ± 0.072 mM
- Vmax [3]: 4.14 µM/min
- kcat [3]: 22.9 ± 3 s⁻¹
- kcat/Km [3]: 11200 ± 4300 M⁻¹ s⁻¹

B5: Phosphoglycerate mutase (PGM) (Escherichia coli K-12) (protein)
chain: MLVSKKPMVLVILDGYGYREEQQDNAIFSAKTPVMDALWANRPHTLIDASGLEVGLPDRQMGNSEVGHVNLGAGRIVYQDLTRLDVEIKDRAFFANPVLTGAVDKAKNAGKAVHIMGLLSAGGVHSHEDHIMAMVELAAERGAEKIYLHAFLDGRDTPPRSAESSLKKFEEKFAALGKGRVASIIGRYYAMDRDNRWDRVEKAYDLLTLAQGEFQADTAVAGLQAAYARDENDEFVKATVIRAEGQPDAAMEDGDALIFMNFRADRAREITRAFVNADFDGFARKKVVNVDFVMLTEYAADIKTAVAYPPASLVNTFGEWMAKNDKTQLRISETEKYAHVTFFFNGGVEESFKGEDRILINSPKVATYDLQPEMSSAELTEKLVAAIKSGKYDTIICNYPNGDMVGHTGVMEAAVKAVEALDHCVEEVAKAVESVGGQLLITADHGNAEQMRDPATGQAHTAHTNLPVPLIYVGDKNVKAVEGGKLSDIAPTMLSLMGMEIPQEMTGKPLFIVE
notes: as for B3
- Km [4]: 3.584 ± 1.138 mM
